# Assay results: the supplement of paper PMC10065799, “High-throughput profiling of sequence recognition by tyrosine kinases and SH2 domains using bacterial peptide display” (eLife, 2023)
# Key:
# EPHB1 = EPHB1 (UniProt P54762); assay: phosphorylation enrichment, bacterial display (enrichment ratio); higher = better substrate or ligand; peptides without Tyr show the background
# FGFR1 = FGFR1 (UniProt P11362); assay: as above
# Fer (mouse) = assay: as above
# Hck = Hck (UniProt P08631); assay: as above
# Fyn = Fyn (UniProt P06241); assay: as above
# c-Src = assay: as above
# Jak2 = Jak2 (UniProt O60674); assay: as above
# FGFR3 = FGFR3 (UniProt P22607); assay: as above
# Fes = Fes (UniProt P07332); assay: as above
# AncSZ = assay: as above
# EPHB2 = EPHB2 (UniProt P29323); assay: as above
# MERTK = MERTK (UniProt Q12866); assay: as above
# c-Abl (mouse) = assay: as above
# SHP2-C SH2 = assay: SH2 binding enrichment of the phosphorylated peptide, bacterial display (enrichment ratio); higher = better substrate or ligand; peptides without Tyr show the background
# Grb2 SH2 = Grb2 SH2 (UniProt P62993); assay: as above
# c-Src SH2 = assay: as above
# 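For SH2 binding enrichment of the phosphorylated peptide, bacterial display in this document: peptide library displayed on the E. coli surface as eCPX fusions, selected cells deep-sequenced, score is each peptide's frequency after selection divided by its frequency in the input.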
# 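For phosphorylation enrichment, bacterial display in this document: 11-residue human phosphosite peptides and single-mutation variants displayed on the E. coli surface, counted by deep sequencing, each peptide's frequency after selection divided by its frequency in the unselected input library; frequency after pTyr selection over input frequency; kinase dosed for 20-30% of maximal phosphorylation in three min.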
# Fes, sequence (P07332 whole entry, looked up): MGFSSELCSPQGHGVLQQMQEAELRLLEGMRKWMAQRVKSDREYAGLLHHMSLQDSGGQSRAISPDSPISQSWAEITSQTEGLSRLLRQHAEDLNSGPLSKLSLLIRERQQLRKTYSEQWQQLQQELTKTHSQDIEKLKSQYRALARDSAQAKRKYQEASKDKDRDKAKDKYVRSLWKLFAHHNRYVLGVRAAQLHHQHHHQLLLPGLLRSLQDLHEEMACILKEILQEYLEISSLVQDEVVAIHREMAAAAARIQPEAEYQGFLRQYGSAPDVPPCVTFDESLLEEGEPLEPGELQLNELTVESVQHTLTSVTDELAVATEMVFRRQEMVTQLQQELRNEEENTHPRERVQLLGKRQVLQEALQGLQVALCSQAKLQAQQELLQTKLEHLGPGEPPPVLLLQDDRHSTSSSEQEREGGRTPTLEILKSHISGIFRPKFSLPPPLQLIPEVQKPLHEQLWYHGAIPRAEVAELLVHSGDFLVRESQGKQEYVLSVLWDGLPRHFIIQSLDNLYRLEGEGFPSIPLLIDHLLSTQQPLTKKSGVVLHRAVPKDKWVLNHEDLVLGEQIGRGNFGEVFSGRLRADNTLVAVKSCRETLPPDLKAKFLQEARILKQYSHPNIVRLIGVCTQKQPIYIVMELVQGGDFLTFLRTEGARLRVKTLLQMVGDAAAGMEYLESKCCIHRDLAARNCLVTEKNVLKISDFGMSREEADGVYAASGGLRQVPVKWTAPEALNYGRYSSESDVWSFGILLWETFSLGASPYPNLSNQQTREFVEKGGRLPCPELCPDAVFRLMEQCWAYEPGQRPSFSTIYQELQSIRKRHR
# Grb2 SH2, sequence (P62993 whole entry, looked up): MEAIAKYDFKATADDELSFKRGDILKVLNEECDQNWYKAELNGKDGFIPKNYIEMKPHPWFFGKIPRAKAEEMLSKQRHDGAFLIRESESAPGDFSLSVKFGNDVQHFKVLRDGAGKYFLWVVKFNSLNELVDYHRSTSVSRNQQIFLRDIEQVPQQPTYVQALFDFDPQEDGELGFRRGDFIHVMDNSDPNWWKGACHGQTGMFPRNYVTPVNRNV
# MERTK, sequence (Q12866 whole entry, looked up): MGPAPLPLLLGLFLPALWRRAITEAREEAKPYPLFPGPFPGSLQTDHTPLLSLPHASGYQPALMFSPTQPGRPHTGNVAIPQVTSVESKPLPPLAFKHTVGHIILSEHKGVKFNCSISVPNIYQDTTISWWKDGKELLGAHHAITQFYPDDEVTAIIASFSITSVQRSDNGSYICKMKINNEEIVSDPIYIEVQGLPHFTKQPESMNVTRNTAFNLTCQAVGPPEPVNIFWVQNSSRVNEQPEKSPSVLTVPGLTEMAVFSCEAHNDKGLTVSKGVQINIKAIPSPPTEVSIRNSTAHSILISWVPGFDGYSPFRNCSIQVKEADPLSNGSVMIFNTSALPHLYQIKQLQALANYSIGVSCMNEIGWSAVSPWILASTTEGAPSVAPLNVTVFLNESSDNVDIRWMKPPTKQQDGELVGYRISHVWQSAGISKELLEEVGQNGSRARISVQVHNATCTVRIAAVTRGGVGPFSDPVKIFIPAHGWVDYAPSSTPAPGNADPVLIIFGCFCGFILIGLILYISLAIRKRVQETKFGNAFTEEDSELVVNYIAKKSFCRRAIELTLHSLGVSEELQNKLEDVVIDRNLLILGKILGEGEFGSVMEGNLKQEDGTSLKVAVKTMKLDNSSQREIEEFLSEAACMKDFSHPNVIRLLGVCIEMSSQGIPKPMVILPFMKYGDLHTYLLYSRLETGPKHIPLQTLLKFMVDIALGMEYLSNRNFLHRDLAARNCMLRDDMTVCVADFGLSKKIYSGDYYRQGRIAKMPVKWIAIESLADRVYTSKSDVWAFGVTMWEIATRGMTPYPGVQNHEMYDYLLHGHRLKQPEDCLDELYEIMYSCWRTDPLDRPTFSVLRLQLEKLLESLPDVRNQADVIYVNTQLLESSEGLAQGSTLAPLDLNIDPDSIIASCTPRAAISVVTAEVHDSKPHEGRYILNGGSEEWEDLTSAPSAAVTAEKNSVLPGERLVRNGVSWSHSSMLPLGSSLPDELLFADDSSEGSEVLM
# FGFR1, sequence (P11362 whole entry, looked up): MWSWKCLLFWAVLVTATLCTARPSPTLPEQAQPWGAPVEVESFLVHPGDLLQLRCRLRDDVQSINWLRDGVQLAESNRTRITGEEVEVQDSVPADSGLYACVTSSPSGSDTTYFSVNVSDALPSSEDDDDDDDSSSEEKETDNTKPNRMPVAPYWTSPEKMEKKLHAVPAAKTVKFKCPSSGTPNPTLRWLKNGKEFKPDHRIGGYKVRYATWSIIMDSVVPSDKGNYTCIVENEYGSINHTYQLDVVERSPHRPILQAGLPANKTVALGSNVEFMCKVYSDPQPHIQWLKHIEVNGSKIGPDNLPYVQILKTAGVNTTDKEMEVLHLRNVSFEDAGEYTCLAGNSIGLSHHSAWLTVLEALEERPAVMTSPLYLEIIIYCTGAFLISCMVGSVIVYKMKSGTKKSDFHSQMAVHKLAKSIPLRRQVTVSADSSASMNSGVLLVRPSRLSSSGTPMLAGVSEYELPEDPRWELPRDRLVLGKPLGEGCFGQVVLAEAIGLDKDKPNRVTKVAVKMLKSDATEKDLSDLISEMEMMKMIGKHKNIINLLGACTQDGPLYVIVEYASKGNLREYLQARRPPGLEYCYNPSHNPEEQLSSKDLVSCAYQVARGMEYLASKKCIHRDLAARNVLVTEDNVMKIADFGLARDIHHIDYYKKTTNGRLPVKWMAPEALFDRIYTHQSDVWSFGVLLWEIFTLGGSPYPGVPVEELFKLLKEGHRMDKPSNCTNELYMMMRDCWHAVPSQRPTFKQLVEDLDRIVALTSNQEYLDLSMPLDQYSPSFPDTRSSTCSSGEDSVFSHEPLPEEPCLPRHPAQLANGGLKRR
# Hck, sequence (P08631 whole entry, looked up): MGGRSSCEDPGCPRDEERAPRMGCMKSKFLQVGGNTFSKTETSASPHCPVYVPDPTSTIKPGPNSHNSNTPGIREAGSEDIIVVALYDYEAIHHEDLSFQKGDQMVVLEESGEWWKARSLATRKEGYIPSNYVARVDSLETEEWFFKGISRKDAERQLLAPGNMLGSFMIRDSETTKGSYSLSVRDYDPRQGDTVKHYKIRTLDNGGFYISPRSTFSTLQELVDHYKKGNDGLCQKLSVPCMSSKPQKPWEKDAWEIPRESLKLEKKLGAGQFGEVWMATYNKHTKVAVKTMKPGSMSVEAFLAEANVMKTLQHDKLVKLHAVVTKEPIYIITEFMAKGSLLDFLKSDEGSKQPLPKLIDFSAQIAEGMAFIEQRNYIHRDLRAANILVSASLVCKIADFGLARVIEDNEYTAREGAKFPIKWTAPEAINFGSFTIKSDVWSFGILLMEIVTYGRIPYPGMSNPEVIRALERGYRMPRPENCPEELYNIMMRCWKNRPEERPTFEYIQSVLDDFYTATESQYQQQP
# EPHB2, sequence (P29323 whole entry, looked up): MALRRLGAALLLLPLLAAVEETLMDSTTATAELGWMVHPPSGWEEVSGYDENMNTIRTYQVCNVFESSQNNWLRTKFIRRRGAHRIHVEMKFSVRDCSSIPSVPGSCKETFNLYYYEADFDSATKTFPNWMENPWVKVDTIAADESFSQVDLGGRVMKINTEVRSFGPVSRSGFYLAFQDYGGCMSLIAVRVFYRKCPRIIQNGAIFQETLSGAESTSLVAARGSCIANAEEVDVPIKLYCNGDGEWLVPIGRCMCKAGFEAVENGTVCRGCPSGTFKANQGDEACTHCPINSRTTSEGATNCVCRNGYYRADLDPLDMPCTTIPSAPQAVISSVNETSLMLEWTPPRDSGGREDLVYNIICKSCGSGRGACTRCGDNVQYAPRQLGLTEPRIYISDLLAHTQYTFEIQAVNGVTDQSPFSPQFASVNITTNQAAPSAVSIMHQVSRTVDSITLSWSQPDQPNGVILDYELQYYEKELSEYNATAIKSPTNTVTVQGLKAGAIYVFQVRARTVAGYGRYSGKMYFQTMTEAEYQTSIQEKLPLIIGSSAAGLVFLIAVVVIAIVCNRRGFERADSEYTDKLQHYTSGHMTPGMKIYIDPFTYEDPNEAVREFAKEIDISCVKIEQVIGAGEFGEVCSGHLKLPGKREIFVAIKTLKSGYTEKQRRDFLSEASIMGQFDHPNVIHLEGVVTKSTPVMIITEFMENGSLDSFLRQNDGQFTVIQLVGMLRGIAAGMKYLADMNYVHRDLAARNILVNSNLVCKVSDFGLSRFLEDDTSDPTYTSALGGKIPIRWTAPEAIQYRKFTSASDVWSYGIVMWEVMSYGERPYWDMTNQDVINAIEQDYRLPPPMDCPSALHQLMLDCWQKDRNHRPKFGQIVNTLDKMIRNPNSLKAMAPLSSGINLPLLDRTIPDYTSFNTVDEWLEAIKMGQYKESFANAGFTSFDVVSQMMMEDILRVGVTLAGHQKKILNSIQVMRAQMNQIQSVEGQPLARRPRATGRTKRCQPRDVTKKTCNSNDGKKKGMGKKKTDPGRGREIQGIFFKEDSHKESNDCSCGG
# Fyn, sequence (P06241 whole entry, looked up): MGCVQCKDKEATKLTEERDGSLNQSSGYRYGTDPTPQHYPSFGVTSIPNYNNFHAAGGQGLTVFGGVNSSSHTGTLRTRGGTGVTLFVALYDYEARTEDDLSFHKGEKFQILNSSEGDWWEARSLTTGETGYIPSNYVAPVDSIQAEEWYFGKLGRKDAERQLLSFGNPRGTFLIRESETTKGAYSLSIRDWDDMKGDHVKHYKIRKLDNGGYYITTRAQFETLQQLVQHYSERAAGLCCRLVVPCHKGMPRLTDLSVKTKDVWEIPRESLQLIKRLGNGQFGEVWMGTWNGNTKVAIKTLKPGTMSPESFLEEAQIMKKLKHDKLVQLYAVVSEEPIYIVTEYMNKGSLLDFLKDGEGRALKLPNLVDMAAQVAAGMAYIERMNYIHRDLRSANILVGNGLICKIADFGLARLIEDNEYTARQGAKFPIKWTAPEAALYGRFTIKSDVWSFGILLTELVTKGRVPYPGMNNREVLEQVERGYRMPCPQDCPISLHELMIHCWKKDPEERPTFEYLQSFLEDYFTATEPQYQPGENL
Sequence,phosphorylation enrichment (EPHB1),phosphorylation enrichment (FGFR1),phosphorylation enrichment (Fer (mouse)),phosphorylation enrichment (Hck),phosphorylation enrichment (Fyn),phosphorylation enrichment (c-Src),phosphorylation enrichment (Jak2),phosphorylation enrichment (FGFR3),phosphorylation enrichment (Fes),phosphorylation enrichment (AncSZ),phosphorylation enrichment (EPHB2),phosphorylation enrichment (MERTK),phosphorylation enrichment (c-Abl (mouse)),SH2 binding enrichment (SHP2-C SH2),SH2 binding enrichment (Grb2 SH2),SH2 binding enrichment (c-Src SH2)
SLFNGYVYSGV [NEIL3_Y71],0.555,0.624,0.864,4.49,5.75,4.91,1.58,0.634,0.978,1.04,0.66,0.929,0.695,2.5,1.03,1.91
SLLPDYEDEEE [ZNF830_Y159],0.744,0.583,0.64,0.673,0.646,0.556,1.01,0.782,1.28,1.47,0.829,0.631,0.647,0.776,0.942,0.601
SNFRAYATEPQ [TNNI3_Y29_H34Q_YF],0.468,0.355,0.442,0.518,0.427,0.346,0.565,0.494,0.869,0.577,0.408,0.477,0.585,0.556,0.806,0.419
SQSKGYRPKLY [SIPA1L3_Y1376_G1371S],0.336,0.424,0.364,0.361,0.344,0.408,0.496,0.33,0.651,0.719,0.337,0.51,0.519,0.662,0.701,0.447
SRGSSYNSIPK [FLNC_Y2625_S2626N],0.417,0.33,0.328,0.286,0.297,0.486,0.587,0.383,0.642,0.53,0.356,0.525,0.524,0.657,0.818,0.559
SSMIDYKPLEK [MYOC_Y479_N480K],0.357,0.377,0.322,0.413,0.434,0.384,0.495,0.425,0.538,0.562,0.421,0.441,0.459,0.565,1.19,0.476
SSNLYYRCLTA [CNGA3_Y169_W171C],0.563,0.949,0.571,0.807,0.493,0.63,1.5,1.13,1.12,1.05,0.766,1.89,0.896,0.611,0.702,0.425
SSQHRYSTPHT [RAF1_Y232_A237T],0.343,0.352,0.425,0.312,0.348,0.423,0.487,0.369,0.477,0.45,0.37,0.405,0.448,0.876,0.813,3.04
SSREGYVRHHN [FAM83B_Y433_S435R],0.309,0.416,0.501,0.387,0.377,0.38,0.672,0.473,0.435,0.482,0.445,0.409,0.451,0.573,0.956,0.592
SSSGAYGGGYG [KRT19_Y61],0.365,0.353,0.364,0.434,0.359,0.377,0.346,0.367,0.526,0.454,0.403,0.34,0.386,0.639,0.861,0.506
SSTASYFEAPG [RFX2_Y108],0.445,4.92,0.378,0.433,0.442,0.432,0.968,3.47,0.802,0.789,0.487,0.449,0.531,0.454,0.862,0.567
SSVKPYRVYCD [FGB_Y266],0.449,0.463,0.42,0.442,0.464,0.519,0.657,0.516,0.791,0.659,0.564,0.401,0.52,0.94,1.07,1.29
STEPQYQPGEN [SRC_Y530],0.516,0.478,0.392,0.499,0.383,0.38,0.681,0.476,0.817,0.825,0.566,0.356,0.564,0.712,0.814,0.558
STSKTYVISQT [RBBP6_Y87_R91Q],0.391,0.431,0.328,0.372,0.446,0.466,0.559,0.429,0.694,0.591,0.418,0.44,0.615,0.578,0.827,0.418
STTIHYNFMCN [TP53_Y234_C229S_YF],0.628,0.523,0.494,0.504,0.493,0.463,0.998,0.797,1.19,1,0.605,0.5,0.753,0.902,0.788,0.64
SVMAEYGLFRA [VSX2_Y219_G223R_YF],0.481,0.514,0.513,5.72,6.8,6.04,0.505,0.538,0.661,0.77,0.513,0.51,0.589,0.627,0.773,0.444
SVMAEYGLYAA [VSX2_Y219_G223A],3.29,0.654,5.85,7.6,7.34,5.12,0.579,0.632,0.798,0.997,8.04,2.4,0.799,0.776,0.838,0.511
